Patent publication US20220370632A1 (HEIDELBERG PHARMA RESEARCH, published 2022)

What was measured:
[1] = target: T1, human CD37 on CD37-positive human cell lines (MEC-1, MEC-2, Raji, Ramos) (human, UniProt P11049 1-281); assay: cell-based or functional assay
T1 sequence: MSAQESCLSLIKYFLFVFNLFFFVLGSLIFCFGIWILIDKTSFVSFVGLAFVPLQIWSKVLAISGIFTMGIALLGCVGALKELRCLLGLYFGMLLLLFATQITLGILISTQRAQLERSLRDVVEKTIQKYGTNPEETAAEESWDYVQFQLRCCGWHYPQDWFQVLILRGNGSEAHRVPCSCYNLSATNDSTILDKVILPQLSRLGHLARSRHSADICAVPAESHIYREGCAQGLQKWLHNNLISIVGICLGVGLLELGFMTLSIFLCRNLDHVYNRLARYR

[2] = target: T1, human CD37 on CD37-positive human cell …; assay: flow cytometry (FACS) on MEC-2 cells, median fluorescence against antibody concentration
[3] = target: T1, human CD37 on CD37-positive human cell …; assay: flow cytometry (FACS) on Ramos cells, median fluorescence against antibody concentration

B1: chHH1-HDP-(XV) (antibody)
heavy: not shown
light: DIVMTQSHKLLSTSVGDRVSITCKASQDVSTAVDWYQQKPGQSPKLLINWASTRHTGVPDRFTGSGSGTDYTLTISSMQAEDLALYYCRQHYSTPFTFGSGTKLEIKRTVAAPSVFIFPPSDEQLKSGTASVVCLLNNFYPREAKVQWKVDNALQSGNSQESVTEQDSKDSTYSLSSTLTLSKADYEKHKVYACEVTHQGLSSPVTKSFNRGEC
modifications: amatoxin-linker moiety of formula (XV), DAR 3.36; cysteine residues carrying it not stated
[1]
  EC 50 [M], cytotoxicity in vitro on MEC-2 cells: 6.06e-08 M
  EC 50 [M], cytotoxicity in vitro on Raji cells: 6.1e-10 M
  EC 50 [M], cytotoxicity in vitro on Ramos cells: 8.5e-11 M

B2: chHH1-HDP-(XIII) (antibody)
heavy: not shown
light: B1 light
modifications: amatoxin-linker moiety of formula (XIII); DAR printed as '-'; cysteine residues carrying it not stated
[1]
  EC 50 [M], cytotoxicity in vitro on MEC-2 cells: 5.59e-10 M
  EC 50 [M], cytotoxicity in vitro on Raji cells: 4.8e-10 M
  EC 50 [M], cytotoxicity in vitro on Ramos cells: 5.6e-11 M

B3: chHH1-HDP-D265C-(XIII) (antibody)
heavy: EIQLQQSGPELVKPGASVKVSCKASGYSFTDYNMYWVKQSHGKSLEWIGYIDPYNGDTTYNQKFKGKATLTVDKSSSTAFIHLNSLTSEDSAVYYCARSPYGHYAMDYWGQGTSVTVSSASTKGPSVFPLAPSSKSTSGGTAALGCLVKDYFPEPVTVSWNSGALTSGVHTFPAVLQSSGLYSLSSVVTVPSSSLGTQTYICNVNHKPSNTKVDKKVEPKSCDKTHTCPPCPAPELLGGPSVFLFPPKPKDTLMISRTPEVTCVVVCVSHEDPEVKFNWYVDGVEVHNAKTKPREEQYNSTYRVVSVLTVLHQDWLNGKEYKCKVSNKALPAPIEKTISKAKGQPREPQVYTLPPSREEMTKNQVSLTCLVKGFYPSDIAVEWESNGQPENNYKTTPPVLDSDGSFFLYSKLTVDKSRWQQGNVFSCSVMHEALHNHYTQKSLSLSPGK
light: B1 light
modifications: amatoxin-linker moiety of formula (XIII) on heavy chain 265Cys (EU numbering); DAR 1.96
[1]
  EC 50 [M], cytotoxicity in vitro on MEC-2 cells: 5.41e-09 M
  EC 50 [M], cytotoxicity in vitro on Raji cells: 6.2e-10 M
  EC 50 [M], cytotoxicity in vitro on Ramos cells: 1.1e-10 M

B4: conjugate XXIV (antibody)
heavy: EIQLQQSGPELVKPGASVKVSCKASGYSFTDYNMYWVKQSHGKSLEWIGYIDPYNGDTTYNQKFKGKATLTVDKSSSTAFIHLNSLTSEDSAVYYCARSPYGHYAMDYWGQGTSVTVSSASTKGPSVFPLAPSSKSTSGGTAALGCLVKDYFPEPVTVSWNSGALTSGVHTFPAVLQSSGLYSLSSVVTVPSSSLGTQTYICNVNHKPSNTKVDKKVEPKSCDKTHTCPPCPAPEAAGGPSVFLFPPKPKDTLMISRTPEVTCVVVCVSHEDPEVKFNWYVDGVEVHNAKTKPREEQYNSTYRVVSVLTVLHQDWLNGKEYKCKVSNKALPAPIEKTISKAKGQPREPQVYTLPPSREEMTKNQVSLTCLVKGFYPSDIAVEWESNGQPENNYKTTPPVLDSDGSFFLYSKLTVDKSRWQQGNVFSCSVMHEALHNHYTQKSLSLSPGK
light: B1 light
modifications: amatoxin-linker moiety of formula (XIII) on heavy chain 265Cys (EU numbering); DAR printed as '-'
[1]
  EC 50 [M], cytotoxicity in vitro on MEC-2 cells: 1.19e-08 M
  EC 50 [M], cytotoxicity in vitro on Raji cells: 7.5e-10 M
  EC 50 [M], cytotoxicity in vitro on Ramos cells: 8.6e-11 M

B5: chHH1-HDP-D265C-(XII) (antibody)
heavy: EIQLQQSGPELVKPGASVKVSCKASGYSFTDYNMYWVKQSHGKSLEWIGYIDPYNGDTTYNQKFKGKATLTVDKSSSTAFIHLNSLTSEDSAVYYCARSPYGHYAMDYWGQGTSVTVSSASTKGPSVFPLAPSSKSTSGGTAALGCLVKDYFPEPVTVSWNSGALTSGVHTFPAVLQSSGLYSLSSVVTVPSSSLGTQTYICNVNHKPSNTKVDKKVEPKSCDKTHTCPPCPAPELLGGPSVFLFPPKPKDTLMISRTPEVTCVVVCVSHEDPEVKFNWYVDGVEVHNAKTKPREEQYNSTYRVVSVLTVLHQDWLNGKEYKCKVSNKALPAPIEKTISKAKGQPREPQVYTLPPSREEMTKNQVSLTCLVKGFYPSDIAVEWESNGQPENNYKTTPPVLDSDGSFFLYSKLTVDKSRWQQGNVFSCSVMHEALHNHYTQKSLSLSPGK
light: B1 light
modifications: amatoxin-linker moiety of formula (XII) on heavy chain 265Cys (EU numbering); DAR 2.03
[1]
  EC 50 [M], cytotoxicity in vitro on MEC-2 cells: 2.14e-08 M
  EC 50 [M], cytotoxicity in vitro on Raji cells: 3.9e-09 M
  EC 50 [M], cytotoxicity in vitro on Ramos cells: 2.2e-10 M

B6: chHH1-HDP-D265C-(XV) (antibody)
heavy: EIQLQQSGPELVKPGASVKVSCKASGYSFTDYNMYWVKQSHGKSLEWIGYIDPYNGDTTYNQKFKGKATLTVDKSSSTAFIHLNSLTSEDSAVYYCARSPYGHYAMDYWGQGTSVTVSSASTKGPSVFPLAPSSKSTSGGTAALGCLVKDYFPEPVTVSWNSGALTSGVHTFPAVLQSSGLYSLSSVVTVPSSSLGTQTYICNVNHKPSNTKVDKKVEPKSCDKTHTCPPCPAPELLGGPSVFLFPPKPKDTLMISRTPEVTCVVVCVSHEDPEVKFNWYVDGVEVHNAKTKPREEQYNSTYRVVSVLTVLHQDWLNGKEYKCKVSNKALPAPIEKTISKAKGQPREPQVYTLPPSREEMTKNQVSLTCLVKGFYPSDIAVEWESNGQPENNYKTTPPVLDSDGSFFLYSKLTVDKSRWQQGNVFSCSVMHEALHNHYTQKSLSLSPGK
light: B1 light
modifications: amatoxin-linker moiety of formula (XV) on heavy chain 265Cys (EU numbering); DAR 2.80
[1]
  EC 50 [M], cytotoxicity in vitro on MEC-2 cells: 1.11e-08 M
  EC 50 [M], cytotoxicity in vitro on Raji cells: 1.63e-09 M
  EC 50 [M], cytotoxicity in vitro on Ramos cells: 4.7e-10 M

B7: conjugate XXVI (antibody)
heavy: B4 heavy
light: B1 light
modifications: amatoxin-linker moiety of formula (XV) on heavy chain 265Cys (EU numbering); DAR 3.15
[1]
  EC 50 [M], cytotoxicity in vitro on MEC-2 cells: 7.54e-09 M
  EC 50 [M], cytotoxicity in vitro on Raji cells: 2.04e-09 M
  EC 50 [M], cytotoxicity in vitro on Ramos cells: 3.2e-10 M

B8: chHH1-HDP-LALA-D265C (antibody, human IgG1, kappa, L234A L235A)
heavy: B4 heavy
light: B1 light
notes: Unconjugated chimeric antibody; Expressed in CHO or HEK293 cells; also called anti-CD37 monoclonal antibody chHH1-LALA-D265C; anti-CD37 chHH1-HDP-LALA-D265C
[2]
  EC50 (read off the curve): ~3 µg/mL
[3]
  EC50 (read off the curve): ~1 µg/mL
